In article PMC6721605:

Molecular target: dynamin-like protein B (dlpB) of Dictyostelium discoideum (Dictyostelium discoideum (endogenous in AX2)) (UniProt Q54MH8)
Test: co-IP; anti-dlpB antibodies on Dynabeads protein G; lysate of partially synchronized (mitotic) wild-type cells (10 °C 16 h, then 10 µM thiabendazole 3.5 h); lysis buffer 150 mM NaCl, 5 mM EGTA, 5 mM EDTA, 1% Triton X-100, 20 mM Tris-HCl pH 7.5; western blot with anti-dlpA and anti-dlpB

UniProt Q54MH8, sequence (Q54MH8 whole entry): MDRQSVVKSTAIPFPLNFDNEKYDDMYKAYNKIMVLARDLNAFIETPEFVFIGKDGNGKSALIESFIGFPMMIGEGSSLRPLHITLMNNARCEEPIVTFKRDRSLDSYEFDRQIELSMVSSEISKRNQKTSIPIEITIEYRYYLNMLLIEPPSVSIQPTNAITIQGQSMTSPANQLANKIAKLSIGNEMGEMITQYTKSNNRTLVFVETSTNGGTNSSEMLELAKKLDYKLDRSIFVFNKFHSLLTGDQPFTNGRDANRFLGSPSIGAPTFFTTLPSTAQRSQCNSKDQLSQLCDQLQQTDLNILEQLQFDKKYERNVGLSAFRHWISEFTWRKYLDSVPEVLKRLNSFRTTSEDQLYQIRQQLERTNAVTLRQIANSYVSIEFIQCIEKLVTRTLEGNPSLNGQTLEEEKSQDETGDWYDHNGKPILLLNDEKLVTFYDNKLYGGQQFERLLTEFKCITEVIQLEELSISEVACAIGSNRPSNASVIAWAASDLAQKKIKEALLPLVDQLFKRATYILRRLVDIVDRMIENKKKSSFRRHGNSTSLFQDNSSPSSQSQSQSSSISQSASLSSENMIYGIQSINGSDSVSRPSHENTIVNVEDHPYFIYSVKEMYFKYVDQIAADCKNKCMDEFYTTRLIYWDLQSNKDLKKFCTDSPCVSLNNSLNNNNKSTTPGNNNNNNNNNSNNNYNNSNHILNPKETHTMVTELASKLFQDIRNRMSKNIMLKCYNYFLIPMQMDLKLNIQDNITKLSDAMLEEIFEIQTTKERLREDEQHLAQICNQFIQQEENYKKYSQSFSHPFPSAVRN

- amount of dlpA in the IP fraction as percent of that in supernatant: 58%
B1: dynamin-like protein A (dlpA) of Dictyostelium discoideum (natural protein)
chain: MSVFKKKDKSDDKKKKHDEETPQGTFQPASQSTSNTNLNSLASSVNNGASVGSTNGSTPNNSNGSTPTYNHNNSAEELEKQKKEEDEKRKKSELEAAAAVVAKKKEDEEKQRKEQVELERKRRDEEIRRTNAAAANAANKELNEQVEISSLEQMGKLDPSSTIHDMFSFFPNEVYNSYEKLQYFSRDLNTAVSHPEIVFVGPRSSGKSSLIEAFIGRALNIVGGGNIVGVGGSNANGCSKRVLYLQFTNNIDFEVPKVTIKKDNTIKEFDHDIIVSIEQLNENLAKRNQLTNDYIEEPIYVSIESRTTLNLTLIDSPGLLFDQSQAESNKIESIVSSLLRPSHRLIIAVESCSQDWKSMSMGQYLKKIDPELSRSTFVFTKFHHTVRGFSSTRDINKYLSGTVPDIKGFFVTLPNHQVRASYSEANRFQEKIYQAHKRDMHALEQLQYDKRYERTIGVAPLRRYILNIVWKSYQDTIPRILKHLRSKRQTAEATLNELQKQSSSLDSTKLRSIASNYTVTFLQITEKLLSGTSEGNPSANGQTLDEEKSQQGDCGEWVDAYKEAIYIDPEEWNIPYWSSKLYGGQQLERLMAEFKAVCDNSKISEVKMDDIATASGINKLNNIPNYAWAASDLTSLISRDTFVPLIEQLCERAMYIMKRLTDIADKVIDSRRKSRCIGSSPFGGNGLNNINSGGNNGININDRLSNTDMDSLDQYPFFTHHVKNLYYDFVHRAAKGCKEKCMDEFYSSRTIYWELTEHPDSSLPSIRNDHHETKTAVCQLATKLFDSIRQRITKNVLLKLYNFFLVPMQTDLWNEIQAQITCLSNEQLEQLFEVQATREQLKQEEKKQQQILEKYSQIDEQFLKAASLFCRPLSNPTPSA
